Our source for the EC50 values is patent publication US7687457B2, “Cyclic molecular framework and derivatives thereof” (The University of Queensland, priority 1999, dated 2010).

The target of the assay is N-type voltage-sensitive calcium channels (receptors in rat brain membrane) (rat) (UniProt Q02294).
Chain of UniProt Q02294 (Q02294 whole entry): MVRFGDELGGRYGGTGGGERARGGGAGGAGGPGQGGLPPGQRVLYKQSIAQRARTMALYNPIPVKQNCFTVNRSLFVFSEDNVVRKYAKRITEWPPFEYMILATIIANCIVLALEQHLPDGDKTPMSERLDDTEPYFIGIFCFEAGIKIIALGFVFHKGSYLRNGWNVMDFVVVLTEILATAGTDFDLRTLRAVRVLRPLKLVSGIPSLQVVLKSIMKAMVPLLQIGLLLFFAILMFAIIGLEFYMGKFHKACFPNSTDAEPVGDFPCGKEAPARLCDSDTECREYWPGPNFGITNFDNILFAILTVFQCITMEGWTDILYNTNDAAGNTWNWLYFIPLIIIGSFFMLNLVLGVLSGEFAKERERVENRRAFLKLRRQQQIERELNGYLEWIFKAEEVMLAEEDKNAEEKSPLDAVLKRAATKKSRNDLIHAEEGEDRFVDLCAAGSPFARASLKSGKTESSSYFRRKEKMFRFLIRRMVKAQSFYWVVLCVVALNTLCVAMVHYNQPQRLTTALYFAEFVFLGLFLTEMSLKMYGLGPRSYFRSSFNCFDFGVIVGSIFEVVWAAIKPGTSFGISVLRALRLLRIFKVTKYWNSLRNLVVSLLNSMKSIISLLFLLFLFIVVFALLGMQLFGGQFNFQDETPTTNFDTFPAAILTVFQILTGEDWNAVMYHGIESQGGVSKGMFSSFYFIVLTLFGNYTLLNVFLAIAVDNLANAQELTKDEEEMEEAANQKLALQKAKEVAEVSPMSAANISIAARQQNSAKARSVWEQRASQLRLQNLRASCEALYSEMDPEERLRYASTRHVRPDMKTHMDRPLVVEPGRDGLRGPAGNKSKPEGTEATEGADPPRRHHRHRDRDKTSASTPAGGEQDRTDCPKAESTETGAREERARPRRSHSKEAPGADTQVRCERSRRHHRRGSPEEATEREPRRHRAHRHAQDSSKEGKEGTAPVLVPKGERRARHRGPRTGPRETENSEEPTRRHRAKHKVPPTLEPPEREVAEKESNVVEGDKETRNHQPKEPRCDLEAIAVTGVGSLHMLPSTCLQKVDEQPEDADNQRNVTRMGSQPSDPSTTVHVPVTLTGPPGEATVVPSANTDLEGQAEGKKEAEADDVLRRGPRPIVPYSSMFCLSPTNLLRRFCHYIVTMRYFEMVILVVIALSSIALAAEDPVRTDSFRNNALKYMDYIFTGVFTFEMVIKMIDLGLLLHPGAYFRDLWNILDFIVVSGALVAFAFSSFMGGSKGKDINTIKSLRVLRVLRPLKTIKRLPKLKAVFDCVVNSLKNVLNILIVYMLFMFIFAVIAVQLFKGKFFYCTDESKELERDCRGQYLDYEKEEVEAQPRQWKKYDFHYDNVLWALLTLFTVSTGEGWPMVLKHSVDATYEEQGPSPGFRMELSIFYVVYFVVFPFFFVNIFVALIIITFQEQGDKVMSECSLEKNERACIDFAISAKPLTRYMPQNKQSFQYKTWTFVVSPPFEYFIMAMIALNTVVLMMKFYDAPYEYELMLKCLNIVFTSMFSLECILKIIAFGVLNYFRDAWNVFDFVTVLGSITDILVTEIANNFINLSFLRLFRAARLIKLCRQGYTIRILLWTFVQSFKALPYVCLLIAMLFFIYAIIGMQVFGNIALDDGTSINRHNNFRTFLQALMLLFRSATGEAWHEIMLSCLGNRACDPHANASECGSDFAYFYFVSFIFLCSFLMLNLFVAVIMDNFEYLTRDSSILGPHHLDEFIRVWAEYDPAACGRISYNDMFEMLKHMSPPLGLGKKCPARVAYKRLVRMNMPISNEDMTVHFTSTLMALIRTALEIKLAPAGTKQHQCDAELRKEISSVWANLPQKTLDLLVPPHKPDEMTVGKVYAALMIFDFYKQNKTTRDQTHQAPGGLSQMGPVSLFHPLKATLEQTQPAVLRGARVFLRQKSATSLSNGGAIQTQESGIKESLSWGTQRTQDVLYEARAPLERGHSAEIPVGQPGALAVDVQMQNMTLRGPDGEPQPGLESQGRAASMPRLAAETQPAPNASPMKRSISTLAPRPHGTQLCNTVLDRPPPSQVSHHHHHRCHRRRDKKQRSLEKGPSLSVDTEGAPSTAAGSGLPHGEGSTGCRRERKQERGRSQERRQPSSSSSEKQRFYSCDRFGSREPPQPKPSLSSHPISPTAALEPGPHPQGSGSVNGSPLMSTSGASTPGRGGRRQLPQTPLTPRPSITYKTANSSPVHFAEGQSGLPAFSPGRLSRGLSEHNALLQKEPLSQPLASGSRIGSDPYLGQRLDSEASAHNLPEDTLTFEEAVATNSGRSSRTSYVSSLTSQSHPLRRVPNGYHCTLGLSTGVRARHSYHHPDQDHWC

As usually defined, the EC50 is the concentration at which the effect is half-maximal. As for “ω-conotoxin MVIIA (from UniProt P05484 46-70) (peptide)”, the EC50 turned out to be 0.044 nM.
